Tested on: MS2 coat protein
Assay: apparent KD of MS2 coat protein; designed switch direction (-1 OFF switch, 1 ON switch): -1; higher = weaker reporter binding
Summary of the method: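 The reported apparent KD is a per-design median over clusters, from curve fits of normalised cluster fluorescence. Protein titrations used SNAP-549-labelled MS2 coat protein, doubled from 0.7 or 1.5 nM to 3 µM, in Tris-HCl pH 7.5 buffer with KCl, MgCl2, BSA, DTT, tRNA and Tween-20, with no input, 200 uM small-molecule ligand, or an oligonucleotide input. The RNA switches were transcribed on Illumina chips by stalled E. coli RNA polymerase.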

[1] = input ligand: microRNA oligo, concentration not stated
[2] = Eterna round: R95, input ligand: FMN 200 uM
[3] = Eterna round: R95, input ligand: microRNA oligo, concentration not stated
[4] = Eterna round: R95, input ligand: none

Sequence	apparent KD of MS2 coat protein (input ligand: FMN 200 uM) [nM]	apparent KD of MS2 coat protein (input ligand: none) [nM]	apparent KD of MS2 coat protein [1] [nM]	apparent KD of MS2 coat protein [2] [nM]	apparent KD of MS2 coat protein [3] [nM]	apparent KD of MS2 coat protein [4] [nM]
CGAGACGGAGGAUAUACAUGAGGAUCACCCAUGUUAAACCACGGGUAGCCUUCGGUCGGUAGAAGGCCGCAUCG [Eternabot (Original) Solution 47] (Eterna round: R97, puzzle: Exclusion 3)	86.7	21.2				
AACGGUGGGUAGGAUAUCCGGUUCUAGUUGCCAGGAGAAGGGCCCACAUGAGGAUCACCCAUGUGGGUGGGCUC [Maesri] (Eterna round: R96, puzzle: Exclusion 6)	44.6	81.3	43.1			
CGUAGCAUUGUGAGGAUAUCUAGAGCUUCGGCUCUAGAGAAGGCACAUGAGGAUCACCCAUGUGAUUAGCUACG [BmEx4/9-C1] (Eterna round: R97, puzzle: Brourd's mod of Exclusion 4)	1760	111				
CAUAUGUUAGGAUAUGCACAGAUCUCCGAAAGGAGAUCUGUGCAGAAGGAACAUGAGGAUCACCCAUGUUGAUG [Mod of Brourd 17 - Jieux - Exclusion 4] (Eterna round: R97, puzzle: Exclusion 4)	176	34.2				
GCGCGAAGGUAGGAUAUCCGGGCAUCUUGCCGCGGAGAAGGACCCACAUGAGGAUCACCCAUGUGGUGAUCCUG [eternacac ex6r4 sub12] (Eterna round: R97, puzzle: Exclusion 6)	40.8	19.4				
GAUAGAGAGCAGGAUAUCUUGGAUAAGUAUAGUAGAGAAGGGCUCACAUGAGGAUCACCCAUGUGGUCCUAGAU [JL Dibiri mod 11] (puzzle: Exclusion 6)				43.8	14.9	15
GAUUAUGCGAGCUUUAGGGACAUGAGGAUCACCCAUGUUCGUCUUAUUGAUCUAGGUACACUAACAUACCUAAAUCU [JMF 17] (puzzle: Sensor v3, turn-off variant 1)				19.8	38.1	23.1
UGAGAGCAAGGAUAUACGUUGGUGUAUACCCGGGUAUGUAUACAUGAGGAUCACCCAUGUAGAAGGUGCACAAA [EX2 B.1] (Eterna round: R97, puzzle: Exclusion 2)	120	36				
UUAUUACAAGCAAGAUCCCACAUGAGGAUCACCCAUGUGCUCGUCUUAUAAGGUACUGUGACGAAAGUCACGGUACC [Sensor 3, v1 - 100] (puzzle: Sensor v3, turn-off variant 1)				25.8	701	24.7
UACGGGUCAGGAUAUGCGAGAGAUUGGGAAAUAGGAAGGUAGCAGAAGGGACAUGAGGAUCACCCAUGUGAAGC [JR_Exclu4_Sub097] (puzzle: Exclusion 4)				32.2	25.9	28.8
AAUUAUUGAUGAGGAUAUUGUGGUGAAACACGACAAGAAGGCAUUUUUCACAUGAGGAUCACCCAUGUGAGCCUUGUGCAUAUA [Ex NG1 #62] (Eterna round: R96, puzzle: Exclusion NG 1)	17.3	15.2	11.5			
GCAGAUGAAGUGAGGAUAUGCUCUACCUCGGUAGAGCAGAAGGCACAUGAGGAUCACCCAUGUGAUUCAUCUGC [Omei Ex4B B6] (Eterna round: R97, puzzle: Brourd's mod of Exclusion 4)	35.4	17				
UGCAGACGAGGAUAUGAUAAUUAAUACAUGAGGAUCACCCAUGUAAUACUGAUCCAUGGAUCAGAAGGCGUCUGCU [E5/4-A3] (Eterna round: R97, puzzle: Exclusion 5)	20.2	13.7				
AAAAGAACAUGAGGAUCACCCAUGUGAACCUUCGUUCGACCUCAGGAUAUCCGCCACCGUCCGCAGGAGAAGGGAGGUAAAAUA [Quraa] (Eterna round: R96, puzzle: Exclusion NG 3)	169	58.8	45.6			
GAAGUUAGAGGAUAUACAUGAGGAUCACCCAUGUAUGAAGUUAACUUUGUAUAUAAAUGUAGAAGGCUAACUUC [-21.1, -19.6 kcal, 36% A] (Eterna round: R97, puzzle: Exclusion 3)	41.6	25.6				
AAUUAGUGAGGAUAUACUAACAGUGAUAGUAGAUAGUGGAUGUAGAAGGCACAUGAGGAUCACCCAUGUUAUAA [EX4 #51] (Eterna round: R97, puzzle: Exclusion 4)	39.1	33.5				
GAGAACGUAGGAUAUACAUGAGGAUCACCCAUGUGAGGAAGGAGUAGGAAGAGUGGAAGUAGAAGGACGGAGAG [JR_Exclu3_Sub072] (puzzle: Exclusion 3)				47.4	21.9	34.9

Sequence	apparent KD of MS2 coat protein (input ligand: FMN 200 uM) [nM]	apparent KD of MS2 coat protein (input ligand: none) [nM]	apparent KD of MS2 coat protein [1] [nM]	apparent KD of MS2 coat protein [2] [nM]	apparent KD of MS2 coat protein [3] [nM]	apparent KD of MS2 coat protein [4] [nM]
GAGAAACAUGAGGAUCACCCAUGUGAGGAUAUGAAAAAGAAAAGAAAAGAAAGAAGAAUCAGAAGGCACAAAGG [salish99-ex1_r3_078] (puzzle: Exclusion 1)				45.3	30.8	39.1
UUUUAACAUGAGGAUCACCCAUGUGAGGAUAUCGAAAUUUAUAUUAAUAUUUAUAUUUCGAGAAGGCACAUUUU [JMF 57] (puzzle: Exclusion 1)					153	
AGGAAUGAAGGAUAUACAUGAGGAUCACCCAUGUAAAAGGAAAGAGGUGAUGGAGAUAGUAGAAGGUCAAGAAG [JR_Exclusion3_Sub004] (puzzle: Exclusion 3)				94.2	135	204
GCGGACUAGUUCGUGAGAACUGAGACAUGAGGAUCACCCAUGUAGGAUAUCGAUUCGAAACGAAUCGAGAAGGGCAUAGUCCGC [JL denovo 9] (Eterna round: R96, puzzle: Exclusion NG 3)	25.1	26.8	17.7			
CCUGUGACGCAGGAUAUCGAGCACAAUGCAUGUUGAGAAGGGCGUACAUGAGGAUCACCCAUGUCUCACGUAGG [Eternabot (L1) Solution 53] (Eterna round: R97, puzzle: Exclusion 6)	175	316				
AAAACGUGAGCAGGAUAUGCAAUAAGAUCAGGUCUUCACAUGAGGAUCACCCAUGUAUAAGGGACGCAGAAGGGCUGAUAAAAG [Aesedat] (Eterna round: R96, puzzle: Exclusion NG 2)	98.4	60.9	49.6			
GUCAGCUCGUGAGGAUAUAUAUAUACAUGAGGAUCACCCAUGUUAGAUCAGCUUCGGCAGUAUAUAUAGAAGGCACGAGCUGAC [ENG2/15-A1] (Eterna round: R96, puzzle: Exclusion NG 2)	345	87.6	78.9			
UAAGUUUACCGAGGAUAUGGUUUUUCCUUUUUACCAGAAGGCGGACUCAACAUGAGGAUCACCCAUGUAUAAAGGGUAUUUGGU [JR_ExcNG1_Sub045] (Eterna round: R96, puzzle: Exclusion NG 1)	57.8	54	49.6			
CUUUUGUGAGGAUAUUAGUAGUUUAUAAUUGGUGUUAUUGCUGAGAAGGCACAUGAGGAUCACCCAUGUACAAC [JR_Ex4_Sub033] (Eterna round: R97, puzzle: Exclusion 4)	97.9	37				
AGUACUAACACGAUAGUGUUAGUACUAUAAGCUUGUGUUACAUGAGGAUCACCCAUGUCCUCAUAAGCUCGUCUUAU [Mat - Sensor v3 - Turn-off var 2 - D78] (puzzle: Sensor v3, turn-off variant 2)				95.6	118	101
GGUGGACAUGAGGAUCACCCAUGUGAGGAUAUCGGCUGGUACGUGGUGGCUGGCAUCUCGAGAAGGCACAUAGU [Exclusion 1 V66] (puzzle: Exclusion 1)					83.6	
CUUGUUUAUGUAGGAUAUGCCUGGCGUGCCUUUGCAGAAGGACAUGAGGAUCACCCAUGUAACAUGAGGCUCACCCAUGUCGCG [salish99_ExNG1_r04_105] (Eterna round: R96, puzzle: Exclusion NG 1)	293	327	213			
UUAUUAUAUGUAGGAUAUGCGUAUUGUUGUUAUGCAGAAGGACAUGAGGAUCACCCAUGUAUAUUAUUGUUAUAUAUUAUAUAU [Title] (Eterna round: R96, puzzle: Exclusion NG 1)	43	25.3	20.2			
CUGUGCACGCUGCGAUCCUACAUGAGGAUCACCCAUGUGGUCUGGUGGCGUGGGUCACCGGACUUGGCUCGUCUUGC [salish99_S_TOV1_R5_071] (Eterna round: R97, puzzle: Sensor, turn-off variant 1)	31.4	31.6				
AAUCCACAUGAGGAUCACCCAUGUGAGGAUAUGAUACUAUGUACUUCGGUACAUAGUAUCAGAAGGCACAUAAA [Ex1-3: 51] (puzzle: Exclusion 1)					28.4	
UACUGGACAGGAUAUGUUCUUGAGCACUUGAGGAUCACCCAAGUCAUCAAGAACUCAGGCACAGAAGGGUUUAUGU [salish99_ex5_r4_005] (Eterna round: R97, puzzle: Exclusion 5)	70.2	18.5				
GGUUGUUGUUUCCGUUCUUACAUGAGGAUCACCCAUGUUUCUUGUCGUGCUCGCGUUGCUCGUCUGGCUGCCUGUUG [salish99_TOv1_r3_070] (puzzle: Sensor v3, turn-off variant 1)				41.2	37.4	54.4
